Experimental data reported in US20240391954A1, “MC4R AGONIST PEPTIDES” (The Regents of the University of Michigan, priority 2021, published 2024).
Positions of bridges follow the written chain, without caps; N, C: chain ends. Non-standard residues stand in square brackets, D forms with d. Cit = NC(=O)NCCC[C@H](N)C(=O)O; Aib = CC(C)(N)C(=O)O

B1: CTX-1634 (peptide)
peptide: Ac-C[Aib]H[dF]RFC-NH2
modifications: disulfide 1-7
SMILES: CC(=O)N[C@H]1CSSC[C@@H](C(N)=O)NC(=O)[C@H](Cc2ccccc2)NC(=O)[C@H](CCCNC(=N)N)NC(=O)[C@@H](Cc2ccccc2)NC(=O)[C@H](Cc2c[nH]cn2)NC(=O)C(C)(C)NC1=O
B2: CTX-1639 (peptide)
peptide: Ac-CG[Cit][dF]RFC-NH2
modifications: disulfide 1-7
SMILES: CC(=O)N[C@H]1CSSC[C@@H](C(N)=O)NC(=O)[C@H](Cc2ccccc2)NC(=O)[C@H](CCCNC(=N)N)NC(=O)[C@@H](Cc2ccccc2)NC(=O)[C@H](CCCNC(N)=O)NC(=O)CNC1=O
B3: CTX-1638 (peptide)
peptide: Ac-CGR[dF]RFC-NH2
modifications: disulfide 1-7
SMILES: CC(=O)N[C@H]1CSSC[C@@H](C(N)=O)NC(=O)[C@H](Cc2ccccc2)NC(=O)[C@H](CCCNC(=N)N)NC(=O)[C@@H](Cc2ccccc2)NC(=O)[C@H](CCCNC(=N)N)NC(=O)CNC1=O
B4: CTX-1635 (peptide)
peptide: Ac-C[Aib]R[dF]RFC-NH2
modifications: disulfide 1-7
SMILES: CC(=O)N[C@H]1CSSC[C@@H](C(N)=O)NC(=O)[C@H](Cc2ccccc2)NC(=O)[C@H](CCCNC(=N)N)NC(=O)[C@@H](Cc2ccccc2)NC(=O)[C@H](CCCNC(=N)N)NC(=O)C(C)(C)NC1=O
B5: CTX-1642 (peptide)
peptide: {CH2CO}-[dA]R[dF]RWC-NH2
modifications: thioether N-6
SMILES: C[C@H]1NC(=O)CSC[C@@H](C(N)=O)NC(=O)[C@H](Cc2c[nH]c3ccccc23)NC(=O)[C@H](CCCNC(=N)N)NC(=O)[C@@H](Cc2ccccc2)NC(=O)[C@H](CCCNC(=N)N)NC1=O
B6: CTX-1646 (peptide)
peptide: {CH2CO}-G[Cit][dF]RWC-NH2
modifications: thioether N-6
SMILES: N=C(N)NCCC[C@@H]1NC(=O)[C@@H](Cc2ccccc2)NC(=O)[C@H](CCCNC(N)=O)NC(=O)CNC(=O)CSC[C@@H](C(N)=O)NC(=O)[C@H](Cc2c[nH]c3ccccc23)NC1=O
B7: CTX-1647 (peptide)
peptide: {CH2CO}-[Aib]H[dF]RWC-NH2
modifications: thioether N-6
SMILES: CC1(C)NC(=O)CSC[C@@H](C(N)=O)NC(=O)[C@H](Cc2c[nH]c3ccccc23)NC(=O)[C@H](CCCNC(=N)N)NC(=O)[C@@H](Cc2ccccc2)NC(=O)[C@H](Cc2c[nH]cn2)NC1=O
B8: CTX-1645 (peptide)
peptide: {CH2CO}-GR[dF]RWC-NH2
modifications: thioether N-6
SMILES: N=C(N)NCCC[C@@H]1NC(=O)CNC(=O)CSC[C@@H](C(N)=O)NC(=O)[C@H](Cc2c[nH]c3ccccc23)NC(=O)[C@H](CCCNC(=N)N)NC(=O)[C@@H](Cc2ccccc2)NC1=O
B9: CTX-1636 (peptide)
peptide: Ac-C[Aib][Cit][dF]RFC-NH2
modifications: disulfide 1-7
SMILES: CC(=O)N[C@H]1CSSC[C@@H](C(N)=O)NC(=O)[C@H](Cc2ccccc2)NC(=O)[C@H](CCCNC(=N)N)NC(=O)[C@@H](Cc2ccccc2)NC(=O)[C@H](CCCNC(N)=O)NC(=O)C(C)(C)NC1=O
B10: CTX-1648 (peptide)
peptide: {CH2CO}-[Aib]R[dF]RWC-NH2
modifications: thioether N-6
SMILES: CC1(C)NC(=O)CSC[C@@H](C(N)=O)NC(=O)[C@H](Cc2c[nH]c3ccccc23)NC(=O)[C@H](CCCNC(=N)N)NC(=O)[C@@H](Cc2ccccc2)NC(=O)[C@H](CCCNC(=N)N)NC1=O
B11: CTX-1644 (peptide)
peptide: {CH2CO}-GH[dF]RWC-NH2
modifications: thioether N-6
SMILES: N=C(N)NCCC[C@@H]1NC(=O)[C@@H](Cc2ccccc2)NC(=O)[C@H](Cc2c[nH]cn2)NC(=O)CNC(=O)CSC[C@@H](C(N)=O)NC(=O)[C@H](Cc2c[nH]c3ccccc23)NC1=O
B12: CTX-1643 (peptide)
peptide: {CH2CO}-[dA][Cit][dF]RWC-NH2
modifications: thioether N-6
SMILES: C[C@H]1NC(=O)CSC[C@@H](C(N)=O)NC(=O)[C@H](Cc2c[nH]c3ccccc23)NC(=O)[C@H](CCCNC(=N)N)NC(=O)[C@@H](Cc2ccccc2)NC(=O)[C@H](CCCNC(N)=O)NC1=O

These binders were tested against human MC3R (human, UniProt P41968 1-323) (assay: cell-based or functional assay).
human MC3R, sequence (P41968 whole entry): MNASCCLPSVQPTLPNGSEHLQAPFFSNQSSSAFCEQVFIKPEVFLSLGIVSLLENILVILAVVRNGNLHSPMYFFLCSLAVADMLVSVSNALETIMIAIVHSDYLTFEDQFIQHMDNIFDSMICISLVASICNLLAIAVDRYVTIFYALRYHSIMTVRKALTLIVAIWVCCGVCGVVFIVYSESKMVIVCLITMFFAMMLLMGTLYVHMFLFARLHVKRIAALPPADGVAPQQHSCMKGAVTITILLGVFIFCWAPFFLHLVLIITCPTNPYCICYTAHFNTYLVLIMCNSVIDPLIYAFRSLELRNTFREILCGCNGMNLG

Row | % max activation [%] | cAMP EC50 [nM] | Binder
1 | 94 | 56 | B1
2 | 44 | 7690 | B2
3 | 75 | 408 | B3
4 | 70 | 380 | B4
5 | 90 | 83 | B5
6 | 70 | 2420 | B6
7 | 102 | 21 | B7
8 | 97 | 68 | B8
9 | 44 | 7460 | B9
10 | 91 | 72 | B10
11 | 107 | 120 | B11
12 | 81 | 2550 | B12

These binders were tested against T1, human MC4R receptor (human, UniProt P32245 1-332) (assay: cell-based or functional assay).
T1 sequence (P32245 whole entry): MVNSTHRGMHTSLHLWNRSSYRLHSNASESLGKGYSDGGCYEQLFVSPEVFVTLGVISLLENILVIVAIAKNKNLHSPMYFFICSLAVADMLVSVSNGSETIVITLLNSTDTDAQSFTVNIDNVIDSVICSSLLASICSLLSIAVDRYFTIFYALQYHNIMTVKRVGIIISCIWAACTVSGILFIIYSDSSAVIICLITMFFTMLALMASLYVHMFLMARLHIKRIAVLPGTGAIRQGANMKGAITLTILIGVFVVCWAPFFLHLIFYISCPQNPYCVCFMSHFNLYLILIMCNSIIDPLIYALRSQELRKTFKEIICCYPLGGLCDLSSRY

Row | % max activation [%] | cAMP EC50 [nM] | Binder
13 | 107 | 8.5 | B1
14 | 88 | 2730 | B2
15 | 110 | 351 | B3
16 | 112 | 67 | B4
17 | 107 | 2.9 | B5
18 | 103 | 13 | B6
19 | 109 | 0.68 | B7
20 | 110 | 1.6 | B8
21 | 102 | 791 | B9
22 | 101 | 1.1 | B10
23 | 111 | 2.3 | B11
24 | 111 | 19 | B12

Target: T1, human MC4R receptor
Assay: cell-based or functional assay
Remark: another data set of the same source

Row | MC4R selectivity vs MC1R | MC4R selectivity vs MC3R | Binder
25 | 4.02 | 6.68 | B1
26 | 8.32 | 2.82 | B2
27 | 1.04 | 1.66 | B3
28 | 1.19 | 5.7 | B4
29 | 13 | 29 | B5
30 | > 770 | 193 | B6
31 | 3.66 | 30 | B7
32 | 9.04 | 42 | B8
33 | > 12 | 9.44 | B9
34 | 13 | 63 | B10
35 | 4.84 | 53 | B11
36 | 261 | 133 | B12
